Assay results reported in US20260159591A1 (FIBROCOR THERAPEUTICS, published 2026).
One block for each binder: values may come before it.

Columns and labels:
[1] = molecular target: T1, human ITGA11 expressed in mouse C2C12 cells (human, UniProt Q9UKX5 23-1188); assay: flow cytometry, 34 nM antibody on C2C12 cells expressing human ITGA11
T1 construct: whole, on cells; also called integrin α11; C2C12 cells expressing human ITGA11
T1 sequence (looked up): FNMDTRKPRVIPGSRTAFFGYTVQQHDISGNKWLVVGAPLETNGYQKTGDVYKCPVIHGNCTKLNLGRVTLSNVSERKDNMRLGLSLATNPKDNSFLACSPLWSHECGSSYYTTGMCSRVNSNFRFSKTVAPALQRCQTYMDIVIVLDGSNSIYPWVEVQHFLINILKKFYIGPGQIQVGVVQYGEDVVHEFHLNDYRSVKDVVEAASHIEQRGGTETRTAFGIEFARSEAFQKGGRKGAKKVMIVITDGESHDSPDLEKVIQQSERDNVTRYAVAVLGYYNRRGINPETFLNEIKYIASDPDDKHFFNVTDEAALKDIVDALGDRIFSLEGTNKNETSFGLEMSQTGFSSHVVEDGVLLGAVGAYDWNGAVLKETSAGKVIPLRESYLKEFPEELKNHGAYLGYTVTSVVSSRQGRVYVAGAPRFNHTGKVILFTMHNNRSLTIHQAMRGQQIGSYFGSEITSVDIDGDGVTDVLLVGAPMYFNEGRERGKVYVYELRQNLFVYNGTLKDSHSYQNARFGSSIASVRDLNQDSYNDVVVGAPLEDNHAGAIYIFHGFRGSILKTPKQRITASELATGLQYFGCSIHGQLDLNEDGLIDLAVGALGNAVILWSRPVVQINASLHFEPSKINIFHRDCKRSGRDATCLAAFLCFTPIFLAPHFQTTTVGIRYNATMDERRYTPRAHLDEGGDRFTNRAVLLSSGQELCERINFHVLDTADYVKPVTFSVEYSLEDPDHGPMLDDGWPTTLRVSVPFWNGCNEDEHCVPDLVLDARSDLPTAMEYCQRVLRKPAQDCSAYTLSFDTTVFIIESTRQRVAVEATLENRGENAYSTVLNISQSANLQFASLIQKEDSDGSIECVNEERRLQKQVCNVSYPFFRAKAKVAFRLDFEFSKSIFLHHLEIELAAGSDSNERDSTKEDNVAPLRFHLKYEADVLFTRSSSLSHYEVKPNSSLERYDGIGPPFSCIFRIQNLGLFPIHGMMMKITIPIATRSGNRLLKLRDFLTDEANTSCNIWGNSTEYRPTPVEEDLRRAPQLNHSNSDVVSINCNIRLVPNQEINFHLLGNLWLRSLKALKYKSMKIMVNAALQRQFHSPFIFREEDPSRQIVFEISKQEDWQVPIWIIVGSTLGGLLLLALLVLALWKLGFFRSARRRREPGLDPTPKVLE
Description: (§1) Antibody binding to C2C12 cells expressing human ITGA11 or CHO cells expressing murine ITGA11 was performed by incubating the cells with the antibodies at a concentration of 34 nM for 1 hour at 4° C. in binding medium (PBS, 10% normal goat serum, 2% rabbit serum, and 1% BSA). Cells were washed in binding medium and binding was detected using goat-anti-human Fc BV421 (Jackson ImmunoLabs). After washing the cells were resuspended in binding medium and binding was assessed by flow cytometry. 226 antibodies were screened and the binding characteristics of 10 antibodies are presented below. The results are provided in Table 2 and are expressed as mean fluorescence intensity (MFI).

[2] = molecular target: T2, murine ITGA11 expressed in CHO cells (murine, UniProt P61622 23-1188); assay: flow cytometry, 34 nM antibody on CHO cells expressing murine ITGA11
T2 construct: whole, on cells; Only the alpha chain is named for these cells; also called mouse ITGA11; CHO cells expressing murine ITGA11
T2 sequence (looked up): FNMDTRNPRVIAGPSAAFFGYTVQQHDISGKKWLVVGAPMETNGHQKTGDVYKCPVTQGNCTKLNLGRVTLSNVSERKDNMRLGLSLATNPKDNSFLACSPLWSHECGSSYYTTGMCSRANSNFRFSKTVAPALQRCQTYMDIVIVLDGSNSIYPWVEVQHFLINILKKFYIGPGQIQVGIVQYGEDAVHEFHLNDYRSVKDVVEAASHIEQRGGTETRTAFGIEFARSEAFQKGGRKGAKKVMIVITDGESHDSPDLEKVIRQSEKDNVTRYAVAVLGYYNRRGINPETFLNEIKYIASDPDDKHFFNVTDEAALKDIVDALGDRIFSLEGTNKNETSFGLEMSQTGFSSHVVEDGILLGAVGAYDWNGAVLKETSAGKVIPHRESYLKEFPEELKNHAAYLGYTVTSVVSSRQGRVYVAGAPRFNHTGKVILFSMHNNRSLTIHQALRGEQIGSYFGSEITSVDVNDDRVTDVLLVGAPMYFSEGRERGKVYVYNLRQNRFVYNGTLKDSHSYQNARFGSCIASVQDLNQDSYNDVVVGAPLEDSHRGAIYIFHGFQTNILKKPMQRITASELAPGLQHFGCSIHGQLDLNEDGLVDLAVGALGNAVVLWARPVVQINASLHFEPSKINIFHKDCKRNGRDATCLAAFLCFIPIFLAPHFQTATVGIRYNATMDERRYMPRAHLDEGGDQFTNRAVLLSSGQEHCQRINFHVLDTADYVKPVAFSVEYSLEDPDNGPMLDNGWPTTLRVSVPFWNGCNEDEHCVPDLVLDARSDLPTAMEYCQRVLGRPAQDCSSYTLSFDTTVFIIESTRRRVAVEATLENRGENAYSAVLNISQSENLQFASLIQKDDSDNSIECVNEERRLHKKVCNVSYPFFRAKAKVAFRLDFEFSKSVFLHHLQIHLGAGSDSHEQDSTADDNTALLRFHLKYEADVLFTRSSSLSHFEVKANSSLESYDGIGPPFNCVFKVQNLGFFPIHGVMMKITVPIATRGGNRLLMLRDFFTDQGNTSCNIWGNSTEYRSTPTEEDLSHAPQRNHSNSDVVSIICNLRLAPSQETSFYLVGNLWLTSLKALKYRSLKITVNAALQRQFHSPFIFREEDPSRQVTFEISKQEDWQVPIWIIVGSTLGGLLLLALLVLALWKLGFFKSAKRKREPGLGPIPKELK
Description: as §1

MFI [1]: 15700 MFI
MFI [2]: 4570 MFI
B1: mAb FIB-918-4 (antibody, human IgG4, V domains shown)
VH: QVQLVQSGAEVKKPGATVKISCKVSGYTFTDYYMHWVRQAPGKGLEWMGGFDPEDGETIYAQKFQGRVTMTEDTSTDTAYMELSSLRSEDTAVYYCATLDYRGVVYFDYWGQGTLVTVSS
VL: NFMLTQPHSVSDSPGKTVTISCTGSSGSIASNYVQWYQQRPGSAPTTVIYEDKRRPSGVPDRFIGSIDSSSNSASLTISGLRTEDEADYYCQSYDSSNHWVFGGGTQLTVLG

MFI [1]: 7870 MFI
MFI [2]: 21300 MFI
B2: mAb FIB-918-7 (antibody, human IgG4, V domains shown)
VH: EVQLVESGGGLVQPGGSLRLSCAASGFMFDTHAMSWVRQAPGKGLEWVSSISGSGGSIYYADSVKGRFTISRDNSKNTLYLQMNSLRAEDTAVYYCARSGETAGTDYFDYWGQGTLVTVSS
VL: EIVMTQSPATLSLSPGERATLSCRASQSVSSSYLSWYQQKPGQAPRLLIYGASTRATGIPARFSGSGSGTDFTLTISSLQPEDFAVYYCQQDYNSPYTFGQGTKVDIKR

MFI [1]: 1450 MFI
MFI [2]: 2030 MFI
B3: mAb FIB-918-9 (antibody, V domains shown)
VH: EVQLVESGGGLVQPGGSLRLSCLASGFTFSDYWMAWVRQAPGKGLEWVSAISGSGGSTYYADSVKGRFTISRDNSKNTLYLQMNSLRAEDTAVYYCAKDLLWAARDAFDIWGQGTLVTVSS
VL: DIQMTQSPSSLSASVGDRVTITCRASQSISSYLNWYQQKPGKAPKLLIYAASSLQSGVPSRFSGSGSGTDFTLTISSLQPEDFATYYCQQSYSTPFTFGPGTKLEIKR

MFI [1]: 7880 MFI
MFI [2]: 9410 MFI
B4: mAb FIB-918-6 (antibody, V domains shown)
VH: EVQLLESGGDLVKAGGSLRLSCAASGFTFSNAWMSWVRQAPGKGLEWVSGISGSGGSTYYADSVKGRFTISRDNSKNTLYLQMNSLRAEDTAVYYCARDRGYSYSETSNDAFDIWGRGTLVTVSS
VL: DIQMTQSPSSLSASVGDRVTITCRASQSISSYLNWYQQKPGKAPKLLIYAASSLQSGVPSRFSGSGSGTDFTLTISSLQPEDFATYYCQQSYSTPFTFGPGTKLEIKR

MFI [1]: 41500 MFI
MFI [2]: 32900 MFI
B5: mAb FIB-918-8 (antibody, V domains shown)
VH: EVQLVESGGGVVRPGGPLRLSCAASGFTFSNAWMSWVRQAPGKGLEWVSAISGSGGSTYYADSVKGRFTISRDNSKNTLYLQMNSLRAEDTAIYYCAKQTVTSADDYFDYWGQGTLVTVSS
VL: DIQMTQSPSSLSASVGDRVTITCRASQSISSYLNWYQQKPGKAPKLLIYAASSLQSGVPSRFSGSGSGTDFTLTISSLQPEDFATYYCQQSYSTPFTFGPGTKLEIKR

MFI [1]: 10600 MFI
MFI [2]: 8570 MFI
B6: mAb FIB-918-10 (antibody, human IgG4, V domains shown)
VH: not shown
VL: AIQLTQSPSTLSASVGDRVTITCRASQGINDFLAWYQQKPGKAPKLLIYAASSLQSGVPSRFSGSGSGTDFTLTISSLQPEDFATYYCQQSYSTPLTFGGGTKVEIKR

MFI [1]: 30400 MFI
MFI [2]: 12600 MFI
B7: mAb FIB-918-2 (antibody, human IgG4, V domains shown)
VH: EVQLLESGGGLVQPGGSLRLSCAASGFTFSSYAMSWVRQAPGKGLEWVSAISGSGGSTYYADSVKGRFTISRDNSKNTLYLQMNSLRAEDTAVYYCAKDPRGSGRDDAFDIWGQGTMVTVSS
VL: NIQMTQSPSSLSASVGDRVTITCRASQTIGSYLNWYQQKPGTAPKLLIYGASTSHTWVPSRFTGGGSGTEFTLTISSLQSEDFATYYCQQSYSTPFTFGGGTKLEIKR

MFI [1]: 5220 MFI
MFI [2]: 1520 MFI
B8: mAb FIB-918-3 (antibody, human IgG4, V domains shown)
VH: EVQLVESGGGLVQPGGSLRLSCAASGFTFSSYSMNWVRQAPGKGLEWVSYISSSSSTIYYADSVKGRFTISRDNAKNSLYLQMNSLRAEDTAVYYCARGPDLSDYFDYWGRGTLVTVSS
VL: not shown
